Paper PMC9527590, “Functional analysis of the N‐terminal region of acetylxylan esterase from Caldanaerobacter subterraneus subsp. tengcongensis” (FEBS Open Bio, 2022)

Key:
[1] = SEC; analytical SEC, Superdex 75 Increase 10/300 GL; 100 μL of protein solution (1.0 mg·mL^−1); 20 mM Tris–HCl (pH 8.0), 150 mM NaCl; masses from a calibration standard; self-association, dimer to monomers
[2] = target: TTE^Δ110, TTE0866 with the N-terminal 110 residues truncated (Caldanaerobacter subterraneus subsp. tengcongensis); test: as above

| stoichiometry N [2] | Substance | percent dimer (SEC peak area) [1] |
| --- | --- | --- |
|  | TTE^Δ110, TTE0866 with the N-terminal 110 residues truncated | the dimer‐to‐monomer percentage of TTE^Δ110 was 20% and 80% |
| 2 | TTE^Δ110, TTE0866 with the N-terminal 110 residues truncated (domain or fragment) |  |
